# PMC9929924, “Phosphorylation of the receptor protein Pex5p modulates import of proteins into peroxisomes” (Biological Chemistry, 2022)
# B1: Pex5p^WT: Pex5p wildtype, PTS1 receptor of S. cerevisiae (protein)
# chain: MDVGSCSVGNNPLAQLHKHTQQNKSLQFNQKNNGRLNESPLQGTNKPGISEAFISNVNAISQENMANMQRFINGEPLIDDKRRMEIGPSSGRLPPFSNVHSLQTSANPTQIKGVNDISHWSQEFQGSNSIQNRNADTGNSEKAWQRGSTTASSRFQYPNTMMNNYAYASMNSLSGSRLQSPAFMNQQQSGRSKEGVNEQEQQPWTDQFEKLEKEVSENLDINDEIEKEENVSEVEQNKPETVEKEEGVYGDQYQSDFQEVWDSIHKDAEEVLPSELVNDDLNLGEDYLKYLGGRVNGNIEYAFQSNNEYFNNPNAYKIGCLLMENGAKLSEAALAFEAAVKEKPDHVDAWLRLGLVQTQNEKELNGISALEECLKLDPKNLEAMKTLAISYINEGYDMSAFTMLDKWAETKYPEIWSRIKQQDDKFQKEKGFTHIDMNAHITKQFLQLANNLSTIDPEIQLCLGLLFYTKDDFDKTIDCFESALRVNPNDELMWNRLGASLANSNRSEEAIQAYHRALQLKPSFVRARYNLAVSSMNIGCFKEAAGYLLSVLSMHEVNTNNKKGDVGSLLNTYNDTVIETLKRVFIAMNRDDLLQEVKPGMDLKRFKGEFSF
# modifications: left off: His6, N-terminal, state not stated
# notes: Pex5p wildtype, PTS1 receptor of S. cerevisiae
# What was measured:
# [1] = tested on: docking complex (Pex14p/Pex17p/Pex13p); experiment: Association of Pex5p variants with the peroxisomal docking complex; assay type: binding, S. cerevisiae; conditions: TPA-tagged Pex5p variants, digitonin-solubilized membrane fractions; immunoblot
# Protocol: Pex5p was affinity-purified from crude membrane and cytosolic fractions prepared from oleic acid-induced cells expressing TPA-tagged Pex5p as described before with slight modifications ([Agne et al. 2003]; [Schafer et al. 2004]). In brief, cytosolic and membrane fractions were prepared as described above using lysis buffer containing 10% (v/v) glycerol. For the analysis of Pex5p phosphorylation sites, crude membrane fractions were resuspended in glycerol-containing lysis buffer, the protein concentration was adjusted to 5 mg ml^−1, and proteins were solubilized using 1% (v/v) Triton X-100. Unsolubilized material was removed by centrifugation (100,000 g, 1 h, 4 °C). The cleared detergent extracts as well as cytosolic fractions were subjected to affinity purification via IgG Sepharose. Proteins bound to the matrix were eluted by incubation with AcTEV protease (Thermo Fisher Scientific/Invitrogen) followed by addition of Ni-NTA agarose to remove the His-tagged TEV protease. Eluted proteins were collected by centrifugation and precipitated by adding the fivefold volume of ice-cold acetone followed by incubation at −20 °C for at least 1 h. […]
# Immunoblot analyses were performed according to standard procedures. […] Quantification of immunoblot signals (Supplementary Figure 1E; n = 3) was performed using the software Image Studio Lite (LI-COR Biosciences).
# [2] = tested on: yeast cells; experiment: Growth of yeast cells expressing Pex5p variants; assay type: cell-based, S. cerevisiae; conditions: n = 3; for growth in oleate: oleate as sole carbon source (YNO medium)
# Source text: Synthetic complete (SC) medium consisted of 0.17% (w/v) yeast nitrogen base (YNB) without amino acids, 0.5% (w/v) ammonium sulfate, and 0.3% (w/v) glucose (pH 6.0) supplemented with appropriate amino acids ([Schummer et al. 2017]). YNO medium contained 0.1% (v/v) oleic acid, 0.05% (v/v) Tween 40, 0.5% (w/v) ammonium sulfate, and 0.17% (w/v) yeast nitrogen base without amino acids, adjusted to pH 6.0 and supplemented with appropriate amino acids. For growth under peroxisome-proliferating conditions, cells were cultured at 30 °C in SC medium until they reached an optical density at 600 nm (OD600) of 1–1.5 and then shifted to YNO medium to induce peroxisome proliferation. Cells were grown for further 12–16 h or as indicated. For growth of cells in glucose medium, SC medium was supplemented with 2% (w/v) glucose.
# [3] = tested on: GFP-SKL import in pex5Δ yeast cells; experiment: Fluorescence microscopy, import of GFP-SKL in cells expressing Pex5p variants; assay type: cell-based, S. cerevisiae; conditions: pex5Δ cells expressing plasmid-encoded Pex5p variant and GFP-SKL, grown in oleate
# Protocol: Cells expressing distinct Pex5p variants (wildtype, Pex5p^2A or Pex5p^2D) and GFP-SKL were grown overnight in 50 ml YNO medium supplemented with 0.1% (w/v) glucose to an OD600 of 1–1.5. Aliquots of 5.4 ml were taken and formaldehyde was added to a final concentration of 3.7% (v/v). Samples were incubated for 10 min at RT with slight agitation. Cells were collected by centrifugation (5 min at 2000 g), resuspended in 1 ml of 0.1 M potassium phosphate buffer (pH 6.8) containing 3.7% (v/v) formaldehyde and incubated for 1 h at RT with slight agitation. Following centrifugation (30 s at 16,000 g), cells were resuspended in 1 ml of 0.1 M potassium phosphate buffer (pH 6.8) containing 10 mM ethanolamine and incubated for further 10 min at RT. Subsequently, cells were washed twice with phosphate-buffered saline (PBS) and resuspended in 10–20 µl of PBS containing 0.1% (v/v) Triton X-100. Fixed cells were analyzed within 48 h after preparation.
# Fluorescence microscopy was performed using a Zeiss Axio Observer.Z1 microscope equipped with an alpha Plan-Aprochromat 100× objective and an AxioCam MR R3. GFP signal was visualized with a 38 HE filterset from Zeiss. Images were processed using Adobe Photoshop CS5 (version 12.0.4 ×64; Adobe Systems Incorporated). To document the structural integrity of cells, bright field images were acquired, adjusted in a way that only the cell boundaries were visible and subsequently added into the blue channel in Photoshop as reported before ([Motley and Hettema 2007]).
# [4] = tested on: organellar pellet; experiment: Distribution of Pex5p variants between cytosolic fraction and organellar pellet; assay type: cell-based, S. cerevisiae; conditions: postnuclear supernatants of oleate-grown cells; immunoblot; n = 3
# Protocol: Spheroplasting of yeast cells, homogenization, preparation of postnuclear supernatants and generation of cytosolic fractions and organellar pellets by centrifugation (25,000 g for 15 min at 4 °C) were performed as described previously ([Erdmann et al. 1989]).
# Immunoblot analyses were performed according to standard procedures. Polyclonal rabbit antibodies used were raised against Pex5p ([Albertini et al. 1997]), Pex14p ([Girzalsky et al. 1999]), Pex13p ([Girzalsky et al. 1999]) and Pex17p ([Huhse et al. 1998]). To detect GFP, monoclonal mouse antibodies (Sigma-Aldrich/Merck or Roche Diagnostics, Germany) were used. Immuno-reactive complexes were visualized either using the IRDye 800CW goat anti-mouse IgG or IRDye 680RD goat anti-rabbit secondary antibody (Li-COR Biosciences, Bad Homburg, Germany) followed by detection with an ‘Infrarot Imaging System’ (Li-COR Biosciences) or using horseradish-peroxidase coupled anti-rabbit or anti-mouse antibodies (Sigma-Aldrich/Merck, Germany) and subsequent detection of chemiluminescence signals with a ChemoCam Camera system (INTAS Science instruments GmbH, Göttingen, Germany). Quantification of immunoblot signals (Supplementary Figure 1E; n = 3) was performed using the software Image Studio Lite (LI-COR Biosciences).
molecule,measurement,setting,value
B1,composition of docking complex and abundance of individual proteins,[1],comparable irrespective of the Pex5p variant expressed
same,growth on glucose,"[2]; SC medium containing 2% glucose, compared to Pex5p^WT cells",equivalent to Pex5p^WT cells
same,growth in oleate,[2]; listed as Pex5p^2A,grew similar to wildtype cells in oleate
same,growth in oleate,[2]; listed as Pex5p^2D,significant growth defect
same,subcellular distribution of GFP-SKL,[3],import of GFP-SKL is restored
same,subcellular distribution of GFP-SKL,[3]; listed as Pex5p^2A,no import phenotype
same,subcellular distribution of GFP-SKL,[3]; listed as Pex5p^2D,"both a punctate staining and diffuse cytosolic fluorescence, suggesting a reduced import of GFP-SKL into peroxisomes"
same,distribution between cytosolic fraction and organellar pellet (membrane binding),[4],no detectable difference
